Experiment [1] deals with IA peptide (Octet assay of PS557 variants). The experiment in a line: Octet (BLI), peptide on sensor, response after 200 s association. Background: Biolayer interferometry detects binding as a change in optical thickness at a sensor tip.
The target in experiment [2] is WA peptide (Octet assay of PS557 variants). The description is as above.
The target in experiment [3] is MA peptide (Octet assay of PS557 variants). The experiment is described as above.
For experiment [4], the target named is YA peptide (Octet assay of PS557 variants). The experiment is described as above.
Experiment [5] deals with FA peptide (Octet assay of PS557 variants). The description is as above.
The target in experiment [6] is N-terminal alanine peptide (SNAP display selection). Briefly: SNAP display, 4 rounds of selection on alanine peptide; NGS abundance in round 4 / naive library.
Experiment [7] addresses IA peptide (Octet assay of PS557 variants). Briefly: Octet (BLI), peptide on sensor, response after 200 s association; second PS829 row.
Experiment [8] addresses MA peptide (Octet assay of PS557 variants). The description is as above.
The target of experiment [9] is FA peptide (Octet assay of PS557 variants). The description is as above.
In experiment [10] the target is T1, HA peptide (Octet assay of PS621 variants).
T1 sequence (peptide): HAKLDEESILKQK
The experiment in a line: Octet (BLI), 30 C.

B1: PS796 (designed binder)
chain: MPTAASATESAIEDTPAPARPEVDGRTKPKRQPRYHVVLWDDDDHTYQYVVVMLQSLFGHPPERGYRLAKEMDTQGRVIVLTTTREHAELKRDQIHAFGYDRLLARSKGSMKASIEAEE
For B1, the Octet response in experiment [1] stood at 11.6 nm; in experiment [2], 0.761 nm; in experiment [3], 8.42 nm; in experiment [4], 1.23 nm; in [5], 1.37 nm.

B2: PS798 (designed binder)
chain: MPTAASATESAIEDTPAPARPEVDGRTKPKRQPRYHVVLWNDDDHTYQYVVVMLQSLFGHPPERGYRLAKEMDTLGRVIVLTTTREHAELKRDQIHAFGYDRLLARSKGSMKASIEAEE
Regarding B2, the values for the Octet response in [1], in experiment [3] and in experiment [5] were 12.7 nm, 9.37 nm and 1.41 nm, respectively.

B3: PS557 mutant N41D, Q55R, H60I, V72M (SNAP display clone) (designed binder, not shown: large carriers; small tags and cut ends)
chain: MPTAASATESAIEDTPAPARPEVDGRTKPKRQPRYHVVLWDDDDHTYQYVVVMLRSLFGIPPERGYRLAKEMDTQGRVIVLTTTREHAELKRDQIHAFGYDRLLARSKGSMKASIEAEE
modifications: In the selection the protein carried an N-terminal SNAP tag covalently bound to benzylguanine on its own coding DNA; this is not in the letters.
As to B3, the Enrichment in experiment [6] turned out to be 320.

B4: PS829 (designed binder)
chain: MPTAASATESAIEDTPAPARPEVDGRTKPKRQPRYHVVLWDDDDHTYQYVVVMLQSLFGHPRERGYRLAKEMDTLGRVIVLTTTREHAELKRDQIHAFGYDRLLARSKGSMKASIEAEE
Consider B4, for which the Octet response in experiment [1] stood at 7.51 nm; in experiment [2] it was 0.625 nm; in experiment [3] it was 4.7 nm; in [4], 0.749 nm; in experiment [5] it was 0.797 nm; in experiment [7], 8.85 nm. For the same molecule, the Octet response in experiment [8] is 7.86 nm; in experiment [9] it was 1.18 nm.

B5: PS557 mutant N41D, Q55R, E63S, L68M, V72M, Y100R (SNAP display clone) (designed binder, not shown: large carriers; small tags and cut ends)
chain: MPTAASATESAIEDTPAPARPEVDGRTKPKRQPRYHVVLWDDDDHTYQYVVVMLRSLFGHPPSRGYRMAKEMDTQGRVIVLTTTREHAELKRDQIHAFGRDRLLARSKGSMKASIEAEE
modifications: In the selection the protein carried an N-terminal SNAP tag covalently bound to benzylguanine on its own coding DNA; this is not in the letters.
Molecule B5 registered an Enrichment in experiment [6] of 166.

B6: PS557 mutant N41D, Q55R, P62Y, E63T, V72M, Y100R (SNAP display clone) (designed binder, part only)
chain: MPTAASATESAIEDTPAPARPEVDGRTKPKRQPRYHVVLWDDDDHTYQYVVVMLRSLFGHPYTRGYRLAKEMDTQGRVIVLTTTREHAELKRDQIHAFGRDRLLARSKGSMKASIEAEE
modifications: N-terminal SNAP tag
Turning to B6, in [6], the Enrichment is 158.

B7: PS847 (designed binder)
chain: MPTAASATESAIEDTPAPARPEVDGRTKPKRQPRYHVVLWDDDDHTYQYVVVMLRSLFGHPPERGYRLAKEMDTQGRVIVLTTTREHAELKRDQIHAFGYDRLLARSKGSMKASIEAEE
Consider B7, for which the Octet response in experiment [1] was 7.77 nm; in experiment [2], 0.0098 nm; in [3], 3.23 nm; in experiment [4], 0.0607 nm; in [5], 0.059 nm.

B8: PS819 (designed binder)
chain: MPTAASATESAIEDTPAPARPEVDGRTKPKRQPRYHVVLWDDDDHTYQYVVVMLQSLFGHPPKRGYRLAKEMDTQGRVIVLTTTREHAELKRDQIHAFGYDRLLARSKGSMKASIEAEE
With B8, the Octet response in experiment [1] came out at 9.06 nm; in experiment [3], 3.75 nm.

B9: PS830 (designed binder)
chain: MPTAASATESAIEDTPAPARPEVDGRTKPKRQPRYHVVLWDDDDHTYQYVVVMLQSLFGHPRKRGYRLAKEMDTLGRVIVLTTTREHAELKRDQIHAFGYDRLLARSKGSMKASIEAEE
In the case of B9, the Octet response in [1] stood at 6.51 nm; in [3], 2.16 nm; in experiment [5] it was 0.0339 nm.

B10: PS808 (designed binder)
chain: MPTAASATESAIEDTPAPARPEVDGRTKPKRQPRYHVVLWNDDDHTYQYVVVMLRSLFGHPPERGYRLAKEVDTQGRVIVLTTTREHAELKRDQIHAFGYDRLLARSKGSMKASIEAEE
For the molecule B10, the Octet response in experiment [1] turned out to be 9.27 nm; in [2], 0.00243 nm; in experiment [3] it was 1.88 nm; in experiment [4], 0.0539 nm; in experiment [5] it was 0.00233 nm.

B11: PS557 mutant N41D, Q55R, E63A, V72M, Y100R (SNAP display clone) (designed binder, not shown: large carriers; small tags and cut ends)
chain: MPTAASATESAIEDTPAPARPEVDGRTKPKRQPRYHVVLWDDDDHTYQYVVVMLRSLFGHPPARGYRLAKEMDTQGRVIVLTTTREHAELKRDQIHAFGRDRLLARSKGSMKASIEAEE
modifications: In the selection the protein carried an N-terminal SNAP tag covalently bound to benzylguanine on its own coding DNA; this is not in the letters.
The molecule B11 gave an Enrichment in experiment [6] of 154.

B12: PS797 (designed binder)
chain: MPTAASATESAIEDTPAPARPEVDGRTKPKRQPRYHVVLWDDDDHTYQYVVVMLQSLFGHPPERGYRLAKEMDTLGRVIVLTTTREHAELKRDQIHAFGYDRLLARSKGSMKASIEAEE
B12: the values for the Octet response in [1], in experiment [3] and in experiment [5] were 11.6 nm, 8.71 nm and 0.202 nm, respectively.

B13: PS557 mutant N41D, E63S, L68M, V72M, R106H (SNAP display clone) (designed binder, not shown: large carriers; small tags and cut ends)
chain: MPTAASATESAIEDTPAPARPEVDGRTKPKRQPRYHVVLWDDDDHTYQYVVVMLQSLFGHPPSRGYRMAKEMDTQGRVIVLTTTREHAELKRDQIHAFGYDRLLAHSKGSMKASIEAEE
modifications: In the selection the protein carried an N-terminal SNAP tag covalently bound to benzylguanine on its own coding DNA; this is not in the letters.
B13 gave an Enrichment in [6] of 124.

B14: PS557 mutant N41D, Q55R, E63W, V72M, R106H (SNAP display clone) (designed binder, not shown: large carriers; small tags and cut ends)
chain: MPTAASATESAIEDTPAPARPEVDGRTKPKRQPRYHVVLWDDDDHTYQYVVVMLRSLFGHPPWRGYRLAKEMDTQGRVIVLTTTREHAELKRDQIHAFGYDRLLAHSKGSMKASIEAEE
modifications: In the selection the protein carried an N-terminal SNAP tag covalently bound to benzylguanine on its own coding DNA; this is not in the letters.
The molecule B14 returned an Enrichment in experiment [6] of 133.

B15: PS801/PS814 (designed binder)
chain: MPTAASATESAIEDTPAPARPEVDGRTKPKRQPRYHVVLWNDDDHTYQYVVVMLQSLFGHPPKRGYRLAKEVDTQGRVIVLTTTREHAELKRDQIHAFGYDRLLARSKGSMKASIEAEE
For the molecule B15, the Octet response in experiment [1] stood at 9.02 nm; in experiment [2], 0.0148 nm; in experiment [3], 1.75 nm; in experiment [4], 0.054 nm; in experiment [5], 0.00662 nm.

B16: PS838 (designed binder)
chain: MPTAASATESAIEDTPAPARPEVDGRTKPKRQPRYHVVLWDDDDHTYQYVVVMLQSLFGHPRERGYRLAKEMDTQGRVIVLTTTREHAELKRDQIHAFGYDRLLARSKGSMKASIEAEE
Consider B16, for which the Octet response amounted to 11.2 nm in experiment [1]; 0.0581 nm in experiment [2]; 8.09 nm in experiment [3]; 0.59 nm in [4]; 0.377 nm in experiment [5].

B17: PS809 (designed binder)
chain: MPTAASATESAIEDTPAPARPEVDGRTKPKRQPRYHVVLWNDDDHTYQYVVVMLQSLFGHPPERGYRLAKEMDTQGRVIVLTTTREHAELKRDQIHAFGYDRLLARSKGSMKASIEAEE
On to B17, for which the Octet response was found to be 8.52 nm in experiment [1]; 0.0117 nm in experiment [2]; 2.23 nm in [3]; 0.0027 nm in [4]; 0.0032 nm in [5].

B18: PS828 (designed binder)
chain: MPTAASATESAIEDTPAPARPEVDGRTKPKRQPRYHVVLWDDDDHTYQYVVVMLQSLFGHPRERGYRLAKEVDTLGRVIVLTTTREHAELKRDQIHAFGYDRLLARSKGSMKASIEAEE
With B18, the figures for the Octet response in experiment [1], in experiment [3] and in experiment [5] were 5.32 nm, 1.7 nm and 0.583 nm, respectively.

B19: PS831 (designed binder)
chain: MPTAASATESAIEDTPAPARPEVDGRTKPKRQPRYHVVLWNDDDHTYQYVVVMLQSLFGHPRKRGYRLAKEMDTLGRVIVLTTTREHAELKRDQIHAFGYDRLLARSKGSMKASIEAEE
Turning to B19, the Octet response in [1] was 10.5 nm; in experiment [3] it was 4.86 nm; in [5] it was 0.755 nm.

B20: PS1101 (designed binder)
chain: MHSKFSHAGRICGAKFKVREPIYRCKECSFDDTCVLCVNCFNPKDHTGHHVYTTICTEFNNGICDCGDKEAWNHTLFCKAEEG
B20 came in with an Octet response in experiment [10] of 0.1.

B21: PS1112 (designed binder)
chain: MHSKFSHAGRICGAKFKVGEPIYRCKECSFDDTCVLCVNCFNPKDHTGHHVYTTICTEFNNGICDCGDKTAWNHTLFCKAEEG
The molecule B21 gave an Octet response in [10] of 0.1.

B22: PS1111 (designed binder)
chain: MHSKFSHAGRICGAKFKVGEPIYRCKECSFDDTCVLCVNCFNPKDHTGHHVYTTICTEFNNGICDCGDKSAWNHTLFCKAEEG
In [10], B22 registered an Octet response of 0.1.

B23: PS1103 (designed binder)
chain: MHSKFSHAGRICGAKFKVGEPIYRCKECSFDYTCVLCVNCFNPKDHTGHHVYTTICTEFNNGICDCGDKEAWNHTLFCKAEEG
Molecule B23 yielded an Octet response in experiment [10] of 0.1.

B24: PS1116 (designed binder)
chain: MHSKFSHAGRICGAKFKVGEPIYRCKECSFDDTCVLCVNCFNPKDHTYHHVYTTICTEFNNGICDCGDKEAWNHTLFCKAEEG
Molecule B24 returned an Octet response in [10] of 0.1.

The values above are taken from patent US20240272170A1.
